# Laboratory results from PMC8443744.
# Biological target: senataxin (SETX), endogenous (human (endogenous in MRC-5)) (UniProt Q7Z333)
# Experiment: proximity ligation; Duolink PLA in methanol-fixed MRC-5 cells with antibodies against the two endogenous proteins; cells mock treated (DMSO), 25 uM CPT for 10 min, or 50 uM alpha-amanitin overnight followed by CPT
# Sequence of UniProt Q7Z333 (Q7Z333 whole entry): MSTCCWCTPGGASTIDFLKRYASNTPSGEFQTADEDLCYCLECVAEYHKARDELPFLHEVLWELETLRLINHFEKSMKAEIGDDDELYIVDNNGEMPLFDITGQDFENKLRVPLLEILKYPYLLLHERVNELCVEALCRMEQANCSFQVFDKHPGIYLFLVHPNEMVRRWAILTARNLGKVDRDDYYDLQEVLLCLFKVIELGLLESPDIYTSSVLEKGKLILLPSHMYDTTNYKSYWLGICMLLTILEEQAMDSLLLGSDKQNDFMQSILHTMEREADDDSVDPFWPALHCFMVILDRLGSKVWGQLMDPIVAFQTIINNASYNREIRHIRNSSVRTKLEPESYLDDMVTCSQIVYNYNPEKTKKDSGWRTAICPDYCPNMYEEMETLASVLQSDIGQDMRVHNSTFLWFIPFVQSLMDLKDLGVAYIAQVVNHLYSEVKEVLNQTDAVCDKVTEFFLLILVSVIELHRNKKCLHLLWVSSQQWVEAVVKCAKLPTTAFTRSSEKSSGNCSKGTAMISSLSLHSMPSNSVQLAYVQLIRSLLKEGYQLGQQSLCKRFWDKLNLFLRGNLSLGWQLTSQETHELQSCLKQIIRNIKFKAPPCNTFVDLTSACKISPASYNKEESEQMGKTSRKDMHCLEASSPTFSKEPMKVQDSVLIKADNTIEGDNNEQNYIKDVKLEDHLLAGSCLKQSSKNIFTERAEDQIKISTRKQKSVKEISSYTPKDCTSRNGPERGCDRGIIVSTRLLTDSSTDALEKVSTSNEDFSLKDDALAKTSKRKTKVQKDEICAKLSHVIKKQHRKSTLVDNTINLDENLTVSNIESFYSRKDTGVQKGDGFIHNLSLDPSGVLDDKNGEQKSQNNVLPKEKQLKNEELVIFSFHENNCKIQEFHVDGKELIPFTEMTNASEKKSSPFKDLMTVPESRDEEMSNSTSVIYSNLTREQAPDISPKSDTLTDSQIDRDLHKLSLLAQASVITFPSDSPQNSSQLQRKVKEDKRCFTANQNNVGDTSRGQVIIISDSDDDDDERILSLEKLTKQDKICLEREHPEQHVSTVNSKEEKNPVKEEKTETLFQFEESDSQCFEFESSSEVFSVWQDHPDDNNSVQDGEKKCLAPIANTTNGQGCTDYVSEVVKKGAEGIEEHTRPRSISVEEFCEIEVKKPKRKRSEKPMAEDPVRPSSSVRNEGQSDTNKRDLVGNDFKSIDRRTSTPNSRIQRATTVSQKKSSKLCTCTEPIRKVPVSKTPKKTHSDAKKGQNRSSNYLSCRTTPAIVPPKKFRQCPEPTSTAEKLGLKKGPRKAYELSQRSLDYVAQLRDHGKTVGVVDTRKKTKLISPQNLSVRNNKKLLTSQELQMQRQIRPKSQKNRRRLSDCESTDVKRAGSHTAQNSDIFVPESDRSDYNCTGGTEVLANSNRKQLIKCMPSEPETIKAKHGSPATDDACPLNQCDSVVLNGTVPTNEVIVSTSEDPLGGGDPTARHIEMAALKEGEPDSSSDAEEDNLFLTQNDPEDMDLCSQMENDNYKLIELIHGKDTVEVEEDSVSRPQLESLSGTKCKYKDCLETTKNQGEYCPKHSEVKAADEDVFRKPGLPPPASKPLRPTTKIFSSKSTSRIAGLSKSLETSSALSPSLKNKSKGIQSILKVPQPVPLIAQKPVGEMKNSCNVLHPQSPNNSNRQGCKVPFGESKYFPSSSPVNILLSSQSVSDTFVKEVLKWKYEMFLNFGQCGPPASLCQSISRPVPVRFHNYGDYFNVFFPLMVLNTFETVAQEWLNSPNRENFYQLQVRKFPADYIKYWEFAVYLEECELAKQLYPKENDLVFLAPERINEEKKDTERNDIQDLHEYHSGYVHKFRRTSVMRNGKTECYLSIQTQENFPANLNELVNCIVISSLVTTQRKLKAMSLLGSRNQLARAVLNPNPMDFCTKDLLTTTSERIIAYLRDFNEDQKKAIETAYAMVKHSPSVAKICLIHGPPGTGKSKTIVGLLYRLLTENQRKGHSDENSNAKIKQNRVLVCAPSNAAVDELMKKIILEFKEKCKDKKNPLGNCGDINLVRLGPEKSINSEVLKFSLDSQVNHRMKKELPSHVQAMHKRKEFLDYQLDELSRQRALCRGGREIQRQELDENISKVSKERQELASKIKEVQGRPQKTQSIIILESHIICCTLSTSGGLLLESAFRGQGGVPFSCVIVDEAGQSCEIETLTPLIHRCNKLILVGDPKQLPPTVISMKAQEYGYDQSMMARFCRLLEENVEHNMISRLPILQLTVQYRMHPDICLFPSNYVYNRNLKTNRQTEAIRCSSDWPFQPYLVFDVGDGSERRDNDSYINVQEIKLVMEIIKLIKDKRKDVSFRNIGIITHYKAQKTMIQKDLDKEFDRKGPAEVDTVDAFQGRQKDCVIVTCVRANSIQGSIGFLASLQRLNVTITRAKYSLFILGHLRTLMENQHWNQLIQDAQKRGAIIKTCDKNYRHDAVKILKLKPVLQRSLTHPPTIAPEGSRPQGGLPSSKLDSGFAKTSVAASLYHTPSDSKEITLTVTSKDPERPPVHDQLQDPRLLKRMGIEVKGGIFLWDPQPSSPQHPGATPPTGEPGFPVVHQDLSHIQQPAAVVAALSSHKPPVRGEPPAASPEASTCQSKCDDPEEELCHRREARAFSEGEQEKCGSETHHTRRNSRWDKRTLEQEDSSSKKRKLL
substance,measurement,value
"ubiquitin specific peptidase 11 (USP11), endogenous (from UniProt P51784 1-963)",fold increase in PLA signal after CPT (against unperturbed cells),5 fold
